Data reported in the nanobody polyreactivity screen of Harvey et al. (2022).

Assay: yeast display, Sf9 membrane polyspecificity reagent, FACS + sequencing; frameworks hold sequencing errors
Summary of the method: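 Polyreactivity labels are assigned by the sorting gate from which each nanobody was recovered. The gates were low and high (top ~1%), set on anti-HA fluorescence for expression and streptavidin fluorescence for reagent binding. Before sorting, galactose-induced (36–48 hours) yeast display cells were stained for 1 hour at 4 °C with 10% biotinylated, detergent-solubilized Sf9 membrane reagent.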

Sequence	polyreactivity (PSR sort gate)
QVQLVESGGGVVQAGGSLRLSCAASGRTFPGYAMGWYRQAAGKERELVAAITRGSTNYADSVKGRFTISRDNAKNTVYKQMNSLKPEATAVYYCAADFQYYFFWEEDYWGHGTQVTVSS	low polyreactivity
QVQLVESGGGLVQAGGSLRLSCAASGSTFYLYAMGWYRQAPGKEREFVAAISWSGGRTYYADSVKGRFTISRDNAKNTVYLQMNSLKPEDTAVYYCAAKPLFGTRDDYWGQGTQVTVSS	low polyreactivity
QVQLVESGGGLVQAGGSLRLSCAASGRIFFLYAMGWYRQAPGKERELVAAITWSADGTYYADSVKGRFTISRDNAKNTVYLQMNSLKPEDTAVYYCNADAYTTASSYNWWYYYWGQGTQVTVSS	low polyreactivity
QLQLVESGGGLVQAGGSLRLSCAASGRIFRRYTMRSYRQAPGKERELVAAITWKGGRTSYADSVKGRFTISRDNANNTVYLQMNSLKPQDTAVYYCAAECPSRYHTFEFWGQGTQVTVSS	high polyreactivity
QVQLVESGGGLLQAGGSLRLSCAASGRIFGSYAMGWYRPAPGKERELVAAINWRGGSTFYADSVKGRFTISRDNAKNTVYLQMNSLKPEDTAVYYCARRGYRQSGDYWGQGSQVTVSS	low polyreactivity
QVQLKESGGGLVQSGGSLRLSCAASGNIVDADIMGWYRQAPGKERELVASITDGGSTNYADSVKGRFTISRDNAKNTVYLQMNSLKPEDTAVYYCAAIAYPDIPTYFDYDSEYFYWGQGTQVTVSS	low polyreactivity
QVQLVESGGGLVQAGGSLRLSCAASGSIFFSNTMGWYRQAPGKERELVASIRETAGSTNYADSLKGRFTISRDYAKITVYLQMHSLKPEDTAVYYCAARYSPTRYHYGYWGQGTQVTVSS	low polyreactivity
QVQLVESGGGLVQAGGSLRLSCAASGRIFVYYAMGWYRPAPWKERELVAVITSGGITYYADSVKGRFTISRDNAKNTVYLQMNSLKPEDTAVYYCAARGHQYDPGSSGKKYYYWGQGTQVTVSS	high polyreactivity
QVQLVESGVGLVQAGGSLRLSCAASGSIFDANTMGWYRQAPGKERELVAAITGSGASTYYADSVKGRFTISRDNAKNTVYLQMNSLKPEDSAVYYCAARRYTSYYKDGWYAYYYWGQGTQVTVSS	high polyreactivity
QVQLVESAGGIVQAGGSLRLRCAASGRTVVNSMGWYRQAPGKERELVAAISTNGGRTYYADSVKWRFTISRDNAKNTVYLQMNSLKPEDTAVYYCAKVLGIRPTYYYWGQGYQVTVSS	high polyreactivity
QVQLVESGGGLVQAGGSLRLSCAASGGTFVGNAMGWYRQAPGKERELVAAISTNSGSTYYADSVKGRFTISRDNAKNTVYLQMNSLKPEDTAVYYCATRNSSKRRGYYYWGQGTQVTVSS	high polyreactivity
QVQLVESGGGLVHAGRSLLLSCAASGRTYRLDAMGWYRQSPGKERELVAAITRGGRTNYADSVKGRFTISRDNAKNTFYLQMNSLKPEDTAVYYCADRYVERPTDYYYWGQGTQVTVSS	low polyreactivity
QVHLVESGGGLVQAGGSLRLSCAASGSLSVRNVMGWYSQAPGKERELVATIRRSGGSTSYADSVKGRFTISRDNSKNSVYLQMNSLKPEDTAVYYCAAVVYTTYRRYDYWGQGTQVNVSS	low polyreactivity
QVQLVESGGGLVQAGGSLRLSCAASGRTFTPNAMGWYRQAPGKEREFVAAITYSGGSTRYADSVKGRFTISRDNAKNTVYLQMNSLKPEDTAVYYCAKGYFYYVYTEDDGYWGQGTQVTVSS	low polyreactivity
QVQLVESGGGLVQAGGSLRLSCAASGSIFTYYAMGWYRQAPGKEREFVAAISRRGGSTYYADSVKGRFTISRDNAKNTVYLQMNSLKPEDTAVYFCAADRWTRTLVKVIGRYYYCGQGTQVTVSS	high polyreactivity
QVQLVESGGGLVQAGGSLRLSCAASGSSFTNYGMGWYRQAPGKERELVAAISESGDTTYYADSVKGRFTISRDNAKNTVYLQMNSLKPEDTAVYYCNRAHGRSRYSRDYDSWGQGTQVTVSS	low polyreactivity
QVQLVESGGGLVQAGGSLRLSCAASGRIFYYYAMGWYRQAPGTERELVASINSVGTTTYADSVKGRFTISRDNAKNTVYLEMNSLKPEDTAVYYCARDTGSIYYDGYEYDYWGQGTQVTVSS	low polyreactivity
QVQLVESGGGLVQAGGSLRLSCAASGITSSLNAMGWYRQAPGKERELVAAISWRGGSTYYADSVKGRFTISRDNAKNTVYLQMNSLKPEDTAVYYCAARSSYRKMDYWGQGTQVTVSS	high polyreactivity
QVQLVESGGGLVQAGGSLRLSCAASGSTFDYYDMGWYRQAPGKARELVAAISSGGDSTYYADSVKGRFTISRDNAKNTVYLQMNSLKPEDTAVYYCAAAVYYGQSVWYYYWGQGTQVTVSS	high polyreactivity
QVQLVESGGGLVQAGGSLRLSCAASGSTFGWYVMGWYRQAPGKERELVAAISQRGGRTYYADSVKGRFSISRDNAKNTVYLQMNSLKPEDTAVYYCAAPGVRVGPTFPRQGYDYWGQGTQVTVSS	high polyreactivity
QVQRVESGGGLVQAGGSLRLSCAASGITFGEYAMGWYSPAPGNERELVAGINWSGDGTYYADSVKGRFTISRDNEKNTVYLQMNSLKPEDTAVYYCAVDPGGGNYIYYYNEYYYWGQGTQVTLSS	low polyreactivity
QVQLVESGGGLVQAGGSLRLSCAASGFTFKYNAMGWYRQAPGKERELVASISSGSTNYADSVKGRFTISRDNAKNTVYLQMNSLKPEDTAVYYCAASVSRGKRFRYGYVFKMDYWGQGTQVTVSS	low polyreactivity

Sequence	polyreactivity (PSR sort gate)
QVQLVESGGGLVQAGGSLRLSCAASGSTFYFNAMGGYRQSPGKERELVAVIDGSGGFTYYADSVKGRFTISRDNAKNTVYLQMNSLKQEVTAVYDCNADLVYNTFLYSGGDEYDYWGQGTQVTVSS	high polyreactivity
QFQLVESGGGLVQAGGSLRLSCAASGSIFFIYAMGWYRQAPGKERELVATITSGGSTYYADSVKGRFTISRDNAKNTVYLQMNSLKPEDTAVYYCAVDEYFAFDYWGQGTQVTVSS	low polyreactivity
QVQLVESGGGLVQAGGSLRLSCAASGRIFPYMGWYRQAPGKERELVAAISSRGGNTYYADSVKGRFTISRDNAKNTVYLQMNSLKPEDTAVYYCNKVKYTWYDWGQGTQVTVSS	high polyreactivity
QVQLVESGGGLVQAGGSLRLSCAASGIIFRNYAMGWYRQAPGKEREFVAAISYRGGTTYYADSVKGRFTISRDNAKNTVYLQMNSLKPEDTAVYYCAAPYYLQQSRYYYWGQGTQVTVSS	high polyreactivity
QVQLVESGGGLVQAGGSLRLSCAASGRIFTPYAMGWYRQAPVKERELVAVIRDGSTYYADSVKGRFTISRDNAKNTVDLLMNSLKPEDTAVYYCRYDIWVWWSGAYDYWGQGTQVTVSS	low polyreactivity
QVQLEDSGGGLVQAGGSLRLSSPASGRIFGWYAMGWYRQAPGKERELVATISYSGASTYYADSVKGRFTISRDNAKNTVYLQMNSLKPEDTAVYYCAAVYHKNGCGDYSWGQGTQVTVSS	high polyreactivity
QVQLVESGGCLVQAGGSLRLSCAASGFTFPYYAMGWDRQAPGKERELVAAISSGGRTNYADSVKGRFTISRDNAKNTVYLQMNSLKPEDTAVYYCATRSYVFAWEFNYWGQGTQVTVSS	high polyreactivity
QVQLVESCGGLVQAGGSLRLSCAASGSISYYYAMGWYRQAPGKERELVAAITRTGTTNYADSVKGRFTISRDNAKNTVYLQMNSLKPEDTAVYYCAKRSTGRLQSYNYWGQGNQVTVSS	low polyreactivity
QVQLVESGGGLVQAGGSLRLSCAASGFIFWSYAMGWYRQAPGKERELVAAIDLTGGSTYYADSVKGRFTISRDNAKNTVYLQMNSLKPEDTAVYYCNADGDTYAFTNSDSGFDYWGQGTQVSVSS	low polyreactivity
QVQLVESGGGIVQAGGSLRLSCAASGSIFVTNTMVWYRQAPGKERELVAAISYRGGSTYADSVKGRFTISRDNAKNTVYLQMNSLKPEDTAVYYCAADDLSFVGYYYGYVDDVYCGQGTQVTVSS	high polyreactivity
QVQLVESGGGLVQAGGSLRLSCAASGRIFDLNAMGWYRQAPGKERELVASITTSTGSTYYADSVKGRFTISRDNAKNTVYLQMNSLKPEDTAVYYCAADKSTHPFPSDPGYGYWGQGTQVTVSS	low polyreactivity
QVQLVESGGGLVQAGGSLRLSCAASGRIFPAYAMGWYRKAPGKETELVAAISWRSGSTYYAHSVKGRFTISRDNAKNTVYLQMNSLKPEDTAVYYCAAEYDWPGYDYWGQGTQVTVSS	high polyreactivity
QVQLVESGGGLVQAGGSLRLSCAASGRSLEHNAMGWYSQAPGKERELVAAISGSGGTTYYADSVKGRFTISRDNAKNTVYLQMNSLKPEDTAVYYCNAKLYRSFDYWGQGTQVTVSS	low polyreactivity
QVQLVESGGGLVQAGGSLRLSCAASGITIGRYAMGWYRQAPGKERELVAAISSTGGRTYYADSVKGRFTISRDNAKNTVYLQMNSLKPEDTAVYYCAKKFAVFVSGYGYWGQGTQVTVSS	high polyreactivity
QVQLVESGGGLVQAGGSLRLSCAASGITFWNYAMGWYRQAPGKERELVAAISYSGGSTYYADSVKGRFTISRDNAKNTVYLQMNSLKPEDTAVYYCAATLPTNWVRYEYWGQGTQVTVSS	low polyreactivity
QVQLVESGGGLVQAGGSLRLSCAASGFIFKYNAMGWYRQAPGKERELVAAITSSGGSTYYADSVKGRFTISRDNAKNTVYLQMNSLKPEDTAVYYCNRVRDPSYDYWGQGTQVTVSS	high polyreactivity
QVQLEESGGGLVQAGGSLRLSCAASGLILRTYGMGWYRQAPGKERELVAVISSGGSTYYADSVKGRFTISRDNAKNTVYLQMNSLKPEDTAVYYCAVRSSWYEGDYWGQGTQVTVSS	low polyreactivity
QVQLVESGGGLVQAGGSLRLTCAASGITFGVYAMGGYRQAPGKERELVAAITRGGRTYYADSVKGRFTISRDNAKNTVYLQMNSLKPVDTAVYYCAAGFWWSSYGYWGQGTQVTVSS	high polyreactivity
QVQLVESGGGLVQAGGSLRLSCAASGLTFRIYAMGWYRQAPGKERQLVAAISYRGGSTYYADSVKGRFTISRDNAKNTVYLQMNSLKPEDTAVYYCAAGFVLNGIRYDYWGQGTQVTVSS	high polyreactivity
QVQLLESGGGLVQAGGSLRLSCDASGSISYHNAMGWYRQAPGKERELVASITSGSSTYYADSVKGSFTISRDNAKNTVYLQMNSLKPEDTAVYYCAAQDYSPYERGRDYWGQGTQVTVSS	low polyreactivity
QVQLVESGGGLVQAGGSLRLSCAASGRIFPRYGMGWYRQAPGKERELVADITSSGSTYADSVKGRFTISRDNAKNTVYLQMNSLKPEDTAVYYCNALYRRLSYSWRYRQLYDYWGQGTQVTVSS	high polyreactivity
